Measured values taken from EP4768503A1.

Molecular target: amyloid precursor protein (APP) on HEK293-APP stable transfected cells (UniProt P05067)
Test: flow cytometry on HEK293-APP cells, four-parameter fit of MFI

Chain of amyloid precursor protein (APP) on HEK293-APP stable transfected cells (P05067 18-770): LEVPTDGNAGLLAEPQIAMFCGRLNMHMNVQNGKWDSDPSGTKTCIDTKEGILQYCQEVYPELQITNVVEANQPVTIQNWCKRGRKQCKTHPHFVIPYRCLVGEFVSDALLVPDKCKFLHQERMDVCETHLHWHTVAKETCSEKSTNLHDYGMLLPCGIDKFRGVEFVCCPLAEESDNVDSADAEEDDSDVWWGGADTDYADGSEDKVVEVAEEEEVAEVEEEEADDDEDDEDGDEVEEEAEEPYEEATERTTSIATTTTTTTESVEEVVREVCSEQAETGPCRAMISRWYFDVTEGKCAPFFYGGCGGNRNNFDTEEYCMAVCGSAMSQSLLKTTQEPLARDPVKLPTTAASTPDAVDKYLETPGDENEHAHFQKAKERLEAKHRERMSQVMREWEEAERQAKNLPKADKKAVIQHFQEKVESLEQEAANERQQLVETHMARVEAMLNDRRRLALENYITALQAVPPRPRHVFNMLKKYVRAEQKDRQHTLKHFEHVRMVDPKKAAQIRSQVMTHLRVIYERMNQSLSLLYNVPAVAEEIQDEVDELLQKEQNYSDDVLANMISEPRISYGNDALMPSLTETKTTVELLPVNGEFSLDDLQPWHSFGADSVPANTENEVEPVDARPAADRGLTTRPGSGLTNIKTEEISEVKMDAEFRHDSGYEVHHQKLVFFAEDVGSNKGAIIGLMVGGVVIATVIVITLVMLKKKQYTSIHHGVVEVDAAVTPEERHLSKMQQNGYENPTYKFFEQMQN

Lecanemab (antibody)
EC50: 6.83 nM
